Experimental data: patent publication US20170291939A1 (Novartis, published 2017)
Numbering of substitutions follows the chain as printed.

B1: MB454 (Fab, V domains shown)
VH: EVQLVESGGDLVQPGGSLRLSCAASGFTFSSYWMSWVRQAPGKGLEWVANIKQDGSEKYYVDSVKGRFTISRDNAKNSLYLQMNSLRAEDTAVYYCARDRGSLYYWGQGTLVTVSS
VL: AIQLTQSPSSLSASVGDRVTITCRPSQGILWALAWYQQKPGKAPKLLIYDASSLENGVPSRFSGSGSGTDFTLTISSLQPEDFATYYCQQFNSYPLTFGGGTKVEIK
notes: Fab variant of XAB1
B2: MB432 (Fab, V domains shown)
VH: B1 VH
VL: B1 VL with W31F
notes: Fab variant of XAB1
B3: MB433 (Fab, V domains shown)
VH: B1 VH
VL: B1 VL with L30Y, A32G
notes: Fab variant of XAB1
B4: MB434 (Fab, V domains shown)
VH: B1 VH
VL: B1 VL with L30W, A32Y
notes: Fab variant of XAB1
B5: MB435 (Fab, V domains shown)
VH: B1 VH
VL: B1 VL with L30N, A32E
B6: MB438 (Fab, V domains shown)
VH: B1 VH
VL: B1 VL with L30P, W31Y
notes: Fab variant of XAB1
B7: MB440 (Fab, V domains shown)
VH: B1 VH
VL: B1 VL with A32Q
notes: Fab variant of XAB1
B8: MB444 (Fab, V domains shown)
VH: B1 VH
VL: B1 VL with A32E
notes: Fab variant of XAB1
B9: MB447 (Fab, V domains shown)
VH: B1 VH
VL: B1 VL with L30F, A32W
notes: Fab variant of XAB1
B10: MB448 (Fab, V domains shown)
VH: B1 VH
VL: B1 VL with L30V, A32M
notes: Fab variant of XAB1
B11: MB450 (Fab, V domains shown)
VH: B1 VH
VL: B1 VL with L30M, A32W
notes: Fab variant of XAB1
B12: MB453 (Fab, V domains shown)
VH: B1 VH
VL: B1 VL with L30V, W31F, A32W
notes: Fab variant of XAB1
B13: MB456 (Fab, V domains shown)
VH: B1 VH
VL: B1 VL with A32H
notes: Fab variant of XAB1
B14: MB457 (Fab, V domains shown)
VH: B1 VH
VL: B1 VL with L30I, A32S
notes: Fab variant of XAB1
B15: MB458 (Fab, V domains shown)
VH: B1 VH
VL: B1 VL with L30W, W31Y, A32Q
notes: Fab variant of XAB1
B16: MB461 (Fab, V domains shown)
VH: B1 VH
VL: B1 VL with L30Y, A32T
notes: Fab variant of XAB1
B17: MB463 (Fab, V domains shown)
VH: B1 VH
VL: B1 VL with L30Y, W31F, A32E
notes: Fab variant of XAB1
B18: MB464 (Fab, V domains shown)
VH: B1 VH
VL: B1 VL with L30I, W31Y, A32Q
notes: Fab variant of XAB1
B19: MB468 (Fab, V domains shown)
VH: B1 VH
VL: B1 VL with L30Y, A32E
notes: Fab variant of XAB1
B20: MB483 (Fab, V domains shown)
VH: B1 VH
VL: B1 VL with L30F, A32T
notes: Fab variant of XAB1
B21: MB486 (Fab, V domains shown)
VH: B1 VH
VL: B1 VL with L30W, A32M
notes: Fab variant of XAB1
B22: MB491 (Fab, V domains shown)
VH: B1 VH
VL: B1 VL with L30F, W31F, A32W
notes: Fab variant of XAB1

molecular target: T1, human IL-17A (construct not specified) (human, UniProt Q16552 24-155, limits assumed); experiment: ELISA, coated huIL-17A, crude Fab extract
T1 construct: also called huIL-17A
T1 sequence: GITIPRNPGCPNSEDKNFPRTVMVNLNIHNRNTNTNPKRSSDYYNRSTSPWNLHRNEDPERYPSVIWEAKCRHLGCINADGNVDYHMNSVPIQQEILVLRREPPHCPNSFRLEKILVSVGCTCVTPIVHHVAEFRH

Compared with B1, B2 is lower in “Classic ELISA (normalized to XAB1 Fab)” value: 2.9 fold for the first, 2.3 fold for the second.

First: B3
Second: B4
The “Classic ELISA (normalized to XAB1 Fab)” value of the first is lower: 2.3 fold for the first, 2.4 fold for the second.

B5 and B6 are the same in “Classic ELISA (normalized to XAB1 Fab)” value: 2.7 fold for the first, 2.7 fold for the second.

Going from B7 to B8, the “Classic ELISA (normalized to XAB1 Fab)” value rises from 2.8 fold to 3.2 fold.

First: B9
Second: B10
The “Classic ELISA (normalized to XAB1 Fab)” value of the first is higher: 3 fold for the first, 2.9 fold for the second.

Going from B11 to B12, the “Classic ELISA (normalized to XAB1 Fab)” value falls from 2.9 fold to 2.7 fold.

Going from B13 to B14, the “Classic ELISA (normalized to XAB1 Fab)” value rises from 2.4 fold to 2.7 fold.

Compared with B15, B16 is higher in “Classic ELISA (normalized to XAB1 Fab)” value: 2.7 fold for the first, 2.9 fold for the second.

B17 and B18 are the same in “Classic ELISA (normalized to XAB1 Fab)” value: 2.7 fold for the first, 2.7 fold for the second.

First: B19
Second: B20
The “Classic ELISA (normalized to XAB1 Fab)” value of the first is lower: 2.8 fold for the first, 3.1 fold for the second.

First: B21
Second: B22
The “Classic ELISA (normalized to XAB1 Fab)” value of the first is lower: 1.9 fold for the first, 2.1 fold for the second.

molecular target: T1, human IL-17A (construct not specified); experiment: ELISA, coated huIL-17A, long wash

Compared with B1, B2 is higher in “Off-rate ELISA (normalized to XAB1 Fab)” value: 34.2 fold for the first, 44.2 fold for the second.

Going from B3 to B4, the “Off-rate ELISA (normalized to XAB1 Fab)” value rises from 39.7 fold to 44.4 fold.

First: B5
Second: B6
The “Off-rate ELISA (normalized to XAB1 Fab)” value of the first is higher: 44.7 fold for the first, 41.5 fold for the second.

First: B7
Second: B8
The “Off-rate ELISA (normalized to XAB1 Fab)” value of the first is higher: 52.5 fold for the first, 48.9 fold for the second.

Going from B9 to B10, the “Off-rate ELISA (normalized to XAB1 Fab)” value falls from 45.5 fold to 40.4 fold.

Going from B11 to B12, the “Off-rate ELISA (normalized to XAB1 Fab)” value rises from 41.5 fold to 43.3 fold.

Compared with B13, B14 is lower in “Off-rate ELISA (normalized to XAB1 Fab)” value: 45.1 fold for the first, 34.7 fold for the second.

Compared with B15, B16 is higher in “Off-rate ELISA (normalized to XAB1 Fab)” value: 33 fold for the first, 49.8 fold for the second.

First: B17
Second: B18
The “Off-rate ELISA (normalized to XAB1 Fab)” value of the first is lower: 34.2 fold for the first, 34.9 fold for the second.

Going from B19 to B20, the “Off-rate ELISA (normalized to XAB1 Fab)” value rises from 43.9 fold to 47.1 fold.

Compared with B21, B22 is lower in “Off-rate ELISA (normalized to XAB1 Fab)” value: 58.5 fold for the first, 43 fold for the second.

molecular target: T1, human IL-17A (construct not specified); experiment: ELISA, coated huIL-17A, then 200 nM XAB1 Fab as competitor

Compared with B1, B2 is higher in “Competition ELISA (normalized to XAB1 Fab)” value: 36.6 fold for the first, 37.3 fold for the second.

Compared with B3, B4 is higher in “Competition ELISA (normalized to XAB1 Fab)” value: 29.3 fold for the first, 39.5 fold for the second.

First: B5
Second: B6
The “Competition ELISA (normalized to XAB1 Fab)” value of the first is higher: 44.6 fold for the first, 41.1 fold for the second.

Going from B7 to B8, the “Competition ELISA (normalized to XAB1 Fab)” value falls from 54 fold to 52.4 fold.

Compared with B9, B10 is lower in “Competition ELISA (normalized to XAB1 Fab)” value: 57 fold for the first, 51.5 fold for the second.

First: B11
Second: B12
The “Competition ELISA (normalized to XAB1 Fab)” value of the first is higher: 53.3 fold for the first, 46.4 fold for the second.

Compared with B13, B14 is lower in “Competition ELISA (normalized to XAB1 Fab)” value: 46.7 fold for the first, 41 fold for the second.

Going from B15 to B16, the “Competition ELISA (normalized to XAB1 Fab)” value rises from 42.1 fold to 62.8 fold.

First: B17
Second: B18
The “Competition ELISA (normalized to XAB1 Fab)” value of the first is lower: 31.6 fold for the first, 36.9 fold for the second.

First: B19
Second: B20
The “Competition ELISA (normalized to XAB1 Fab)” value of the first is higher: 60 fold for the first, 45.2 fold for the second.

First: B21
Second: B22
The “Competition ELISA (normalized to XAB1 Fab)” value of the first is higher: 64.9 fold for the first, 44.2 fold for the second.
